Patent US6465254, “Mutant loxP site and applications thereof” (Sumitomo Pharmaceuticals Company, Limited)
Where a chain is given by its changes, count along the chain named.

Assays:
Conditions in all cases: tags: expressed from recombinant adenovirus AxCANCre in 293 cells
Cre recombinase [1] = molecular target: T1, Cre recombinase (UniProt P06956 P06956:1-343); assay: self x self; intermediate 3
Procedure: (§1) Substrate DNA (1 μg) prepared in (3) and cell extract containing Cre (10 μl) prepared in (1) were incubated at 37° C. for 30 min in a 50 μl volume of buffer containing 50 mM Tris-HCl (pH 7.5)/10 mM MgCl2/1 mg/ml bovine serum albumin/1 mM phenylmethylsulfonyl fluoride (PMSF)/5 μg/ml aprotinin. After completion of the reaction, 45 μl of TE buffer (pH 8.0) and 5 μl of EDTA solution (pH 8.0) were added to the reaction mixture, extracted with phenol/chloroform and with chloroform, followed ethanol precipitation. The recovered DNA was dissolveld in 30 μl of TE buffer (pH 8.0) containing RNase A (20 μg/ml). Half volume thereof was digested with restriction enzyme BsaHI. The DNA bands detected by ethidium bromide (EtBr) staining after agarose gel electrophoresis, were analyzed.
(§2) Before recombination mediated by Cre, restriction enzyme BsaHI digestion of linear substrate DNA (approx. 4.1 kb) generates four bands of 2.7 kb, 610 bp, 380 bp and 360 bp. On the other hand, as a result of recombination of substrate DNA mediated by Cre, a circular DNA of approx. 4.0 kb containing one mutant loxP, and a linear DNA of approx. 50 bp consisting of only mutant loxP, are produced. Digestion of these DNA with restriction enzyme BsaHI generates four bands of 2.7 kb, 920 bp, 380 bp and 50 bp (refer to FIG. 6).

Cre recombinase [2] = molecular target: T1, Cre recombinase; assay: self x self; intermediate 2
Cre recombinase [3] = molecular target: T1, Cre recombinase; assay: self x self; intermediate 0
Cre recombinase [4] = molecular target: T1, Cre recombinase; assay: self x self; intermediate 5
Procedure: as §1, §2

T1 sequence (P06956 whole entry, one chain of several): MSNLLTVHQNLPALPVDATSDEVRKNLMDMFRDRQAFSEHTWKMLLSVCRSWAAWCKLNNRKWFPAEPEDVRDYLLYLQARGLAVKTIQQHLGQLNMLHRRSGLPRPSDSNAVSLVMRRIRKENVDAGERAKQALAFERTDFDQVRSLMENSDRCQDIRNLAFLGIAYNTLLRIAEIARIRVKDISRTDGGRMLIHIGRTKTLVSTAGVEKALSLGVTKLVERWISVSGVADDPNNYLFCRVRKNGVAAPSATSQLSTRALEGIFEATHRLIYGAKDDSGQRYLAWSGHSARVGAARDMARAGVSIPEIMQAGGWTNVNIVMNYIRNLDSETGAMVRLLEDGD

B1: mutant loxP #72 (dsDNA)
DNA 1: ATAACTTCGTATAATGTATCCTATACGAAGTTAT
DNA 2: ATAACTTCGTATAGGATACATTATACGAAGTTAT
With B1 the activity (Cre recombinase [1]) was 7 grade 0-9 final product.

B2: mutant loxP #81 (dsDNA)
DNA 1: B1 DNA 1 with C20G, C21T
DNA 2: B1 DNA 2 with G14A, G15C
With B2 the activity (Cre recombinase [1]) was 3 grade 0-9 final product.

B3: mutant loxP #2271 (dsDNA)
DNA 1: B1 DNA 1 with T15A, C20A
DNA 2: B1 DNA 2 with G15T, A20T
Binder B3 has an activity (Cre recombinase [2]) of 6 grade 0-9 final product.

B4: mutant loxP #4172 (dsDNA)
DNA 1: B1 DNA 1 with T17C
DNA 2: B1 DNA 2 with A18G
For B4, the activity (Cre recombinase [2]) was 4 grade 0-9 final product.

B5: mutant loxP #5171 (dsDNA)
DNA 1: B1 DNA 1 with A18G, C20A
DNA 2: B1 DNA 2 with G15T, T17C
B5 was tested, and the activity (Cre recombinase [3]) was 6 grade 0-9 final product.

B6: mutant loxP #31 (dsDNA)
DNA 1: B1 DNA 1 with G16A, C20G
DNA 2: B1 DNA 2 with G15C, C19T
Work on B6 yielded an activity (Cre recombinase [4]) of 7 grade 0-9 final product.

B7: mutant loxP #2372 (dsDNA)
DNA 1: B1 DNA 1 with T15G
DNA 2: B1 DNA 2 with A20C
B7 gave an activity (Cre recombinase [2]) of 0 grade 0-9 final product.

B8: mutant loxP #6171 (dsDNA)
DNA 1: B1 DNA 1 with T19C, C20A
DNA 2: B1 DNA 2 with G15T, A16G
With B8 the activity (Cre recombinase [3]) was 6 grade 0-9 final product.

B9: mutant loxP #73 (dsDNA)
DNA 1: B1 DNA 1 with C20T
DNA 2: B1 DNA 2 with G15A
B9 showed an activity (Cre recombinase [1]) of 1 grade 0-9 final product.

B10: mutant loxP #4171 (dsDNA)
DNA 1: B1 DNA 1 with T17C, C20A
DNA 2: B1 DNA 2 with G15T, A18G
With B10 the activity (Cre recombinase [3]) was 4 grade 0-9 final product.
